Laboratory results: IntAct's records for PubMed 22632831

B1: Transcription cofactor vestigial-like protein 1 (Mus musculus), Q99NC0 (parent)
chain: MEEMKKNGVWIPESSQKPVKTEWNAGSVIFTYFEGDINSMVDEHFSRALRNLKRPHKCSSSSHSDNLTLKNGVNKTRTDTSHTDRERKVESSQTENSGELKDVPVEEKGTNKSMPPNQRHLSSWTIAQPAASPENGARSSSLDEYGLKAMDQHSLSMPKTPSALPLEPWHFSSLARPGFIAPAYFPVFPDRHLTPEVYRVFPDRHLTPEVYHVFPDRHLTPEVYPDGRCGPLQHLVQQDRYQNHPLEPAARENCSPAKIAGSTGSLMNLPPYPVHYKKKICARGAASASLDDERSPSPKRRRDAYYY

Variants of: B1
Conditions: with Tead4, Q62296-1
Tead4, Q62296-1, sequence (Q62296 whole entry): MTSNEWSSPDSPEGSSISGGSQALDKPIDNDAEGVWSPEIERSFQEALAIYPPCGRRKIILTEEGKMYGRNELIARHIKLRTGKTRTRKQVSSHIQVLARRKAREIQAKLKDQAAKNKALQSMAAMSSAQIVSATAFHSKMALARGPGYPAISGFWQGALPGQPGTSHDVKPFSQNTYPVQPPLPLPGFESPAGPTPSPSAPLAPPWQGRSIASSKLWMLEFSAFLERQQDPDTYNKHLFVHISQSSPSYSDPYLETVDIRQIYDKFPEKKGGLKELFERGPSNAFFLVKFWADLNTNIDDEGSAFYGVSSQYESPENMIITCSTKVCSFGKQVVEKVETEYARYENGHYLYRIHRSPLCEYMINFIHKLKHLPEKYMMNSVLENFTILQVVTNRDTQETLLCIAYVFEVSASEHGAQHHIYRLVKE

effect of a mutation on the interaction	Variant
decreasing interaction strength	MEEMKKNGVWIPESSQKPVKTEWNAGSVIFTYFEGDINSMVDEAASRALRNLKRPHKCSSSSHSDNLTLKNGVNKTRTDTSHTDRERKVESSQTENSGELKDVPVEEKGTNKSMPPNQRHLSSWTIAQPAASPENGARSSSLDEYGLKAMDQHSLSMPKTPSALPLEPWHFSSLARPGFIAPAYFPVFPDRHLTPEVYRVFPDRHLTPEVYHVFPDRHLTPEVYPDGRCGPLQHLVQQDRYQNHPLEPAARENCSPAKIAGSTGSLMNLPPYPVHYKKKICARGAASASLDDERSPSPKRRRDAYYY [H44A;F45A]
